Results as given in paper PMC4116150.
Positions count from the first letter of the chain named. Names and notes keep the numbering of the source.

What was measured:
Test in all cases: purified protein
[1] = system: CC(C)(COP(=O)(O)OP(=O)(O)OC[C@H]1O[C@@H](n2cnc3c(N)ncnc32)[C@H](O)[C@@H]1OP(=O)(O)O)[C@@H](O)C(=O)NCCC(=O)NCCSC(=O)c1cc(O)c2ccccc2c1O; conditions: 50 mM K+HEPES pH 7.5, 1 mM DTNB, 25 °C
[2] = system: CC(C)(COP(=O)(O)OP(=O)(O)OC[C@H]1O[C@@H](n2cnc3c(N)ncnc32)[C@H](O)[C@@H]1OP(=O)(O)O)[C@@H](O)C(=O)NCCC(=O)NCCSC(=O)c1ccccc1; conditions: 50 mM K+HEPES pH 7.5, 1 mM DTNB, 25 °C
[3] = system: CCCCCCCCCCCC(=O)SCCNC(=O)CCNC(=O)[C@H](O)C(C)(C)COP(=O)(O)OP(=O)(O)OC[C@H]1O[C@@H](n2cnc3c(N)ncnc32)[C@H](O)[C@@H]1OP(=O)(O)O; conditions: 50 mM K+HEPES pH 7.5, 1 mM DTNB, 25 °C
purified protein [4] = substrate: CC(C)(COP(=O)(O)OP(=O)(O)OC[C@H]1O[C@@H](n2cnc3c(N)ncnc32)[C@H](O)[C@@H]1OP(=O)(O)O)[C@@H](O)C(=O)NCCC(=O)NCCSC(=O)/C=C/c1ccc(O)cc1; conditions: 50 mM K+HEPES pH 7.5, 1 mM DTNB, 25 °C
purified protein [5] = substrate: CC(C)(COP(=O)(O)OP(=O)(O)OC[C@H]1O[C@@H](n2cnc3c(N)ncnc32)[C@H](O)[C@@H]1OP(=O)(O)O)[C@@H](O)C(=O)NCCC(=O)NCCSC(=O)c1cc(O)c2ccccc2c1O; conditions: 50 mM K+HEPES pH 7.5, 1 mM DTNB, 25 °C; remark: listed apart in the source
purified protein [6] = substrate: CCCCCCCC/C=C\CCCCCCCC(=O)SCCNC(=O)CCNC(=O)[C@H](O)C(C)(C)COP(=O)(O)OP(=O)(O)OC[C@H]1O[C@@H](n2cnc3c(N)ncnc32)[C@H](O)[C@@H]1OP(=O)(O)O; conditions: 50 mM K+HEPES pH 7.5, 1 mM DTNB, 25 °C
purified protein [7] = substrate: CCCCCCCCCCCCCC(=O)SCCNC(=O)CCNC(=O)[C@H](O)C(C)(C)COP(=O)(O)OP(=O)(O)OC[C@H]1O[C@@H](n2cnc3c(N)ncnc32)[C@H](O)[C@@H]1OP(=O)(O)O; conditions: 50 mM K+HEPES pH 7.5, 1 mM DTNB, 25 °C
purified protein [8] = substrate: CC(C(=O)O)C(=O)SCCNC(=O)CCNC(=O)[C@H](O)C(C)(C)COP(=O)(O)OP(=O)(O)OC[C@H]1O[C@@H](n2cnc3c(N)ncnc32)[C@H](O)[C@@H]1OP(=O)(O)O; conditions: 50 mM K+HEPES pH 7.5, 1 mM DTNB, 25 °C
purified protein [9] = substrate: CC(C)(COP(=O)(O)OP(=O)(O)OC[C@H]1O[C@@H](n2cnc3c(N)ncnc32)[C@H](O)[C@@H]1OP(=O)(O)O)[C@@H](O)C(=O)NCCC(=O)NCCSC(=O)c1ccc(O)cc1; conditions: 50 mM K+HEPES pH 7.5, 25 °C
purified protein [10] = substrate: CC(C)(COP(=O)(O)OP(=O)(O)OC[C@H]1O[C@@H](n2cnc3c(N)ncnc32)[C@H](O)[C@@H]1OP(=O)(O)O)[C@@H](O)C(=O)NCCC(=O)NCCSC(=O)c1ccccc1; conditions: 50 mM K+HEPES pH 7.5, 1 mM DTNB, 25 °C; remark: listed apart in the source
purified protein [11] = substrate: CC(C)=CC(=O)SCCNC(=O)CCNC(=O)[C@H](O)C(C)(C)COP(=O)(O)OP(=O)(O)OC[C@H]1O[C@@H](n2cnc3c(N)ncnc32)[C@H](O)[C@@H]1OP(=O)(O)O; conditions: 50 mM K+HEPES pH 7.5, 1 mM DTNB, 25 °C
purified protein [12] = substrate: CCC(=O)SCCNC(=O)CCNC(=O)[C@H](O)C(C)(C)COP(=O)(O)OP(=O)(O)OC[C@H]1O[C@@H](n2cnc3c(N)ncnc32)[C@H](O)[C@@H]1OP(=O)(O)O; conditions: 50 mM K+HEPES pH 7.5, 1 mM DTNB, 25 °C
purified protein [13] = substrate: CCCCCC(=O)SCCNC(=O)CCNC(=O)[C@H](O)C(C)(C)COP(=O)(O)OP(=O)(O)OC[C@H]1O[C@@H](n2cnc3c(N)ncnc32)[C@H](O)[C@@H]1OP(=O)(O)O; conditions: 50 mM K+HEPES pH 7.5, 1 mM DTNB, 25 °C
purified protein [14] = substrate: CCCCCCCCCCCC(=O)SCCNC(=O)CCNC(=O)[C@H](O)C(C)(C)COP(=O)(O)OP(=O)(O)OC[C@H]1O[C@@H](n2cnc3c(N)ncnc32)[C@H](O)[C@@H]1OP(=O)(O)O; conditions: 50 mM K+HEPES pH 7.5, 1 mM DTNB, 25 °C; remark: listed apart in the source
purified protein [15] = substrate: CCCCCCCCCCCCCCCC(=O)SCCNC(=O)CCNC(=O)[C@H](O)C(C)(C)COP(=O)(O)OP(=O)(O)OC[C@H]1O[C@@H](n2cnc3c(N)ncnc32)[C@H](O)[C@@H]1OP(=O)(O)O; conditions: 50 mM K+HEPES pH 7.5, 1 mM DTNB, 25 °C
purified protein [16] = substrate: CCCCCCCCCCCC(=O)SCCNC(=O)CCNC(=O)[C@H](O)C(C)(C)COP(=O)(O)OP(=O)(O)OC[C@H]1O[C@@H](n2cnc3c(N)ncnc32)[C@H](O)[C@@H]1OP(=O)(O)O; type: biochemical, Escherichia coli; conditions: 50 mM K+HEPES pH 7.5, 1 mM DTNB, 25 °C

## YbdB (Escherichia coli K-12; M68V)
[1]
  Km: 5.9 ± 0.6 µM
  kcat: 0.16 ± 0.02 s⁻¹
  kcat/Km: 27000 M⁻¹ s⁻¹
[2]
  Km: 24 ± 2 µM
  kcat: 1.8 ± 0.1 s⁻¹
  kcat/Km: 75000 M⁻¹ s⁻¹
[3]
  Km: 10.4 ± 0.3 µM
  kcat: 0.046 ± 0.004 s⁻¹
  kcat/Km: 4500 M⁻¹ s⁻¹

B1: YbdB (Escherichia coli K-12) (protein)
chain: MIWKRHLTLDELNATSDNTMVAHLGIVYTRLGDDVLEAEMPVDTRTHQPFGLLHGGASAALAETLGSMAGFMMTRDGQCVVGTELNATHHRPVSEGKVRGVCQPLHLGRQNQSWEIVVFDEQGRRCCTCRLGTAVLG
Purified protein [4]
  Km: 10 ± 1 µM
  kcat: 0.82 ± 0.02 s⁻¹
  kcat/Km: 82000 M⁻¹ s⁻¹
Purified protein [5]
  Km: 17 ± 1 µM
  kcat: 0.0093 ± 0.0002 s⁻¹
  kcat/Km: 550 M⁻¹ s⁻¹
Purified protein [6]
  Km: 13 ± 2 µM
  kcat: 0.03 ± 0.002 s⁻¹
  kcat/Km: 2300 M⁻¹ s⁻¹
Purified protein [7]
  Km: 11 ± 1 µM
  kcat: 0.078 ± 0.003 s⁻¹
  kcat/Km: 7100 M⁻¹ s⁻¹

B2: YdiI (Escherichia coli K-12) (protein)
chain: MIWKRKITLEALNAMGEGNMVGFLDIRFEHIGDDTLEATMPVDSRTKQPFGLLHGGASVVLAESIGSVAGYLCTEGEQKVVGLEINANHVRSAREGRVRGVCKPLHLGSRHQVWQIEIFDEKGRLCCSSRLTTAIL
Purified protein [8]
  Km: 115 ± 7 µM
  kcat: 0.67 ± 0.03 s⁻¹
  kcat/Km: 5800 M⁻¹ s⁻¹
Purified protein [4]
  Km: 30 ± 2 µM
  kcat: 8.4 ± 0.2 s⁻¹
  kcat/Km: 280000 M⁻¹ s⁻¹
Purified protein [5]
  Km: 8 ± 1 µM
  kcat: 1.6 ± 0.1 s⁻¹
  kcat/Km: 200000 M⁻¹ s⁻¹
Purified protein [9]
  Km: 9 ± 1 µM
  kcat: 5.2 ± 0.2 s⁻¹
  kcat/Km: 580000 M⁻¹ s⁻¹
Purified protein [10]
  Km: 25 ± 3 µM
  kcat: 17.7 ± 0.7 s⁻¹
  kcat/Km: 710000 M⁻¹ s⁻¹
Purified protein [11]
  Km: 69.4 ± 0.4 µM
  kcat: 0.5 ± 0.02 s⁻¹
  kcat/Km: 7300 M⁻¹ s⁻¹
Purified protein [12]
  Km: 120 ± 10 µM
  kcat: 0.21 ± 0.01 s⁻¹
  kcat/Km: 1700 M⁻¹ s⁻¹
Purified protein [13]
  Km: 21 ± 1 µM
  kcat: 0.3 ± 0.01 s⁻¹
  kcat/Km: 14000 M⁻¹ s⁻¹
Purified protein [6]
  Km: 1.3 ± 0.1 µM
  kcat: 0.12 ± 0.01 s⁻¹
  kcat/Km: 92000 M⁻¹ s⁻¹
Purified protein [14]
  Km: 2.2 ± 0.1 µM
  kcat: 0.74 ± 0.01 s⁻¹
  kcat/Km: 330000 M⁻¹ s⁻¹
Purified protein [7]
  Km: 1.5 ± 0.2 µM
  kcat: 0.62 ± 0.01 s⁻¹
  kcat/Km: 410000 M⁻¹ s⁻¹
Purified protein [15]
  Km: 1.9 ± 0.1 µM
  kcat: 0.58 ± 0.01 s⁻¹
  kcat/Km: 300000 M⁻¹ s⁻¹

B3: YdiI (Escherichia coli K-12; V68M) (protein)
chain: B2 chain with V68M
Purified protein [16]
  Km: 28 ± 2 µM
  kcat: 0.77 ± 0.03 s⁻¹
  kcat/Km: 28000 M⁻¹ s⁻¹
